Test results from patent publication US20190248900A1 (Y BIOLOGICS, published 2019).

Key:
Test in all cases: ELISA
[1] = biological target: T1, TLR9 (Homo sapiens (Human), UniProt Q9NR96 26-818)
T1 sequence: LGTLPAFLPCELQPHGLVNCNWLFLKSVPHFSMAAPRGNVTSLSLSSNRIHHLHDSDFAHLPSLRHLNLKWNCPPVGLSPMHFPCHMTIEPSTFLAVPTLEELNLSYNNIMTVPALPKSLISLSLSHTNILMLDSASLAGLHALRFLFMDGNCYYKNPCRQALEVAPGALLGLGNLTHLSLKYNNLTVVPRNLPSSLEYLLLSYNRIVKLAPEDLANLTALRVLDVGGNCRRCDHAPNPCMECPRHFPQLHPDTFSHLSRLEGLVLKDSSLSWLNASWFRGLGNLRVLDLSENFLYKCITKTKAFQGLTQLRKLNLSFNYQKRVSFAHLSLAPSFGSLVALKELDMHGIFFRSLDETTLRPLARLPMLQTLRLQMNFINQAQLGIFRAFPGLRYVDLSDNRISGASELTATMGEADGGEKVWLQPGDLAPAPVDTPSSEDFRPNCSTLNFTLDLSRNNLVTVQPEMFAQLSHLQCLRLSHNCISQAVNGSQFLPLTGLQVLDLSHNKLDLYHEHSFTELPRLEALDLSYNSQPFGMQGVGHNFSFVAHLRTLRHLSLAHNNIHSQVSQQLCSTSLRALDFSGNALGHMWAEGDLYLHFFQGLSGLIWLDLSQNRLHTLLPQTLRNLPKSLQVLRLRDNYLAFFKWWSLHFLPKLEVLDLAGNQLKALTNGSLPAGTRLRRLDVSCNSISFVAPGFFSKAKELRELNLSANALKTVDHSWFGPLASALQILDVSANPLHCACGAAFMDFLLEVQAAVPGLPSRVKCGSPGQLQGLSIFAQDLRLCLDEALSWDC

[2] = biological target: T2, TPBG (Homo sapiens (Human), UniProt Q13641 32-355)
T2 sequence: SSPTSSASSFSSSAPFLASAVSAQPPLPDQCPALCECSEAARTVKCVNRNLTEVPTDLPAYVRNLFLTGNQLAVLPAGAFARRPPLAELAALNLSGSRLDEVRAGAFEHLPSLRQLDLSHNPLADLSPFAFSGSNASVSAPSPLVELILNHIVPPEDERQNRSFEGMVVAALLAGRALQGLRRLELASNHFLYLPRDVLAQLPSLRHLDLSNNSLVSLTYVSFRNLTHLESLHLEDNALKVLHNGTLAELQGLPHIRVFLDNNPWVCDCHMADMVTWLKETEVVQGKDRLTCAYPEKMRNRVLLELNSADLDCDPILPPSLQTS

[3] = biological target: T3, BTN2A1 (Homo sapiens (Human), UniProt Q7KYR7 29-248)
T3 sequence: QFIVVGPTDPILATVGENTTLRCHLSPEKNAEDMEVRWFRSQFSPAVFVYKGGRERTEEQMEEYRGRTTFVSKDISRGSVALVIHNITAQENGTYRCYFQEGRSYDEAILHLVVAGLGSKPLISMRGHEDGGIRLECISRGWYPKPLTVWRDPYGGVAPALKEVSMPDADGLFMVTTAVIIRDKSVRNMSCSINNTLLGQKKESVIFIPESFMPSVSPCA

[4] = biological target: T4, TNFSF8 (Homo sapiens (Human), UniProt P32971 63-234)
T4 sequence: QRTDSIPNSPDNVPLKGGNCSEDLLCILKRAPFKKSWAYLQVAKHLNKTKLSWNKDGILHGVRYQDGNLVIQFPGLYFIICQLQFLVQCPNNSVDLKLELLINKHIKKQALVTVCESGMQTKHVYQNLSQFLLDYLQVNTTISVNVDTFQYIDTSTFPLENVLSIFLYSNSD

[5] = biological target: T5, SEMA5A (Homo sapiens (Human), UniProt Q13591 23-968)
T5 sequence: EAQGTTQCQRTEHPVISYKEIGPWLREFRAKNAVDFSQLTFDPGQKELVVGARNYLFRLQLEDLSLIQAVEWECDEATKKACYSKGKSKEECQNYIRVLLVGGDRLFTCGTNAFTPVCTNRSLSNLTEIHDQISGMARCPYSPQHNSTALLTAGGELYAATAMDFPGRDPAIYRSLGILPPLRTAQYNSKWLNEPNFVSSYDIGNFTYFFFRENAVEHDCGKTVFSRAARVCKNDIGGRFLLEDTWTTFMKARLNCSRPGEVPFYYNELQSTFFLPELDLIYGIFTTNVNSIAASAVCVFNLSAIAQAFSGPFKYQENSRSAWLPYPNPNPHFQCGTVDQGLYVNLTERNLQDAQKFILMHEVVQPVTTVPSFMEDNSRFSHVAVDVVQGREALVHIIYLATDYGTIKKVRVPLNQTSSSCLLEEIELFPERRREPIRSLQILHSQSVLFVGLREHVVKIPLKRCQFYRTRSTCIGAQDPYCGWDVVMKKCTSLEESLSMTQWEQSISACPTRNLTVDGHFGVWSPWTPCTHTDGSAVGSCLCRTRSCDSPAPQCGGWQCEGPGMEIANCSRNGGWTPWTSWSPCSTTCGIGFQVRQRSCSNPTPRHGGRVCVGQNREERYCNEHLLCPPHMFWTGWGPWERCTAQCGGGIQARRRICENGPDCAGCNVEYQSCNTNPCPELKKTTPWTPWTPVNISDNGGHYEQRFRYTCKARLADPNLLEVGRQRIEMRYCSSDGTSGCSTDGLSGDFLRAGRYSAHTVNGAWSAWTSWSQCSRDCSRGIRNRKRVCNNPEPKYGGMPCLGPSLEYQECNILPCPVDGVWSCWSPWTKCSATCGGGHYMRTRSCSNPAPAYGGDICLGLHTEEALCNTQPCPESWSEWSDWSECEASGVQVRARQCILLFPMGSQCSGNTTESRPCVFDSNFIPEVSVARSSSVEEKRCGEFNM

[6] = biological target: TNF (Homo sapiens (Human), UniProt P01375 77-233)
[7] = biological target: T6, OPTC (Homo sapiens (Human), UniProt Q9UBM4 20-332)
T6 sequence: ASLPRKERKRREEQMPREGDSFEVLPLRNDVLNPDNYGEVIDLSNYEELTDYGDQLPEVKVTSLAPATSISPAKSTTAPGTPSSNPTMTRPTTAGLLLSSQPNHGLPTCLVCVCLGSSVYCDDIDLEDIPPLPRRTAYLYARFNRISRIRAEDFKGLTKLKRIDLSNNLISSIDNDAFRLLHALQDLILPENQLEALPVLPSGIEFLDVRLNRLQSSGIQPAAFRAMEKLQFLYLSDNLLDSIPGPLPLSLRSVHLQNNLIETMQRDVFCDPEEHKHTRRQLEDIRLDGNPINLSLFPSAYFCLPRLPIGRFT

Measured: binding result

Sequence of TNF (P01375 77-233 limits assumed): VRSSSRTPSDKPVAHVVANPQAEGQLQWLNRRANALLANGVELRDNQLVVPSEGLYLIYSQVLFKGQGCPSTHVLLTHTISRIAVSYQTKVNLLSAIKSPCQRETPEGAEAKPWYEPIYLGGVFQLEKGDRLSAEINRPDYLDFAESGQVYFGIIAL

B1: PD1-45D6 (antibody, V domains shown)
VH: QVQLVESGGGVVQPGRSLRLSCAASGFTFSSYAMHWVRQVPGKGLEWVAVISYDGNDKYYADSVKGRFTISRDNSKNTLYLQMNSLRAEDTAVYYCVPTTFEYWGQGSQVTVSS
VL: DIVMTQTPLSLPVTPGEAASISCRSSQSLLDSDDGKTYLDWYLQKPGQSPQLLIYTLSYRASGVPDRFSGSGSGTEFNLRISRVEAEDVGIYYCMQRVEFPFTFGQGTKLDIK
notes: scFv-phage in the screening ELISA; whole IgG in the other assays
no binding (tested: 1 ug/ml): all assays above

B2: PD1-41C9 (antibody, V domains shown)
VH: QMQLVESGGGVVQPGRSLRLSCAASGFTFSSYAMHWVRQAPGKGLEWVAVISYDGSNKYYADSVKGRFTISRDNSKNTLYLQMNRLRSEDTAVYYCTTTTFDSWGQGTLITVSS
VL: DIVMTQTPLSLPVTPGEAASISCRSSQSLLDSEDGNTYLDWYLQKPGQSPQLLIYTLSHRASGVPDRFSGSGSGTDFTLKISRVAAEDVGLYYCLQRMGFPYTFGQGTKLDIK
notes: as for B1
no binding (tested: 1 ug/ml): all assays above

B3: PD1-49A2 (antibody, V domains shown)
VH: QVQLVESGGGVVQPGRSLRLSCAASGFTFSSYAMHWVRQAPGKGLEWVAVISYDGSNKYYADSVKGRFTISRDNPKNTLYLQMNSLRAEDTAVYYCTTTTFDSWGRGTLVTVSS
VL: DIVMTQSPLSLPVTPGEPASISCRSSQSLFDSDDGNTYLDWYLQKPGQSPQLLIYTLSHRASGVPDRFSGSGSGTDFTLKISRVEAEDVGIYYCLQRMGFPYTFGQGTKVEIK
notes: scFv-phage in the screening ELISA; whole IgG in the other assays; also called Parent 49A2
no binding (tested: 1 ug/ml): all assays above
